Assay results reported in article PMC12152161 (2025).

B1: His10 − MBP − PTPN21(19–308) (domain or fragment)
chain: SKSCLVARIQLLNNEFVEFTLSVESTGQESLEAVAQRLELREVTYFSLWYYNKQNQRRWVDLEKPLKKQLDKYALEPTVYFGVVFYVPSVSQLQQEITRYQYYLQLKKDILEGSIPCTLEQAIQLAGLAVQADFGDFDQYESQDFLQKFALFPVGWLQDEKVLEEATQKVALLHQKYRGLTAPDAEMLYMQEVERMDGYGEESYPAKDSQGSDISIGACLEGIFVKHKNGRHPVVFRWHDIANMSHNKSFFALELANKEETIQFQTEDMETAKYIWRLCVARHKFYRLNQ
B2: His10 − MBP−Hook3(553–624) (domain or fragment)
chain: EKLHEANNELQKKRAIIEDLEPRFNNSSLKIEELQEALRKKEEEMKQMEERYKKYLEKAKSVIRTLDPKQNQ

Target: T1, His10 − MBP − KIF1C(714–809) (UniProt O43896 714-809)
T1 chain: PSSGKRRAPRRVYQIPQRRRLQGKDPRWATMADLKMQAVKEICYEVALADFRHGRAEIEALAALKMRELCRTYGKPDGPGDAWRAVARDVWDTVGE
Assay: ITC

Binder	Ka [M⁻¹]
B1	194000
B2	631000
